A short description of the series: self-splicing fitness, log relative to wild type (ln ratio); higher = more splicing; Tetrahymena group I intron in knt gene, E. coli kanamycin selection, DiMSum; sequences stand for … in CUCUCU…GGAGGGAAAAGUUAUCAGGCAUGCACCUGGUAGCUAGUCUUUAAACCAAUAGAUUGCAUCGGUUUAAAAGGCAAGACCGUCAAAUUGCGGGAAAGGGGUCAACAGCCGUUCAGUACCAAGUCUCAGGGGAAACUUUGAGAUGGCCUUGCAAAGGGUAUGGUAAUAAGCUGACGGACAUGGUCCUAACCACGCAGCCAAGUCCUAAGUCAACAGAUCUUCUGUUGAUAUGGAUGCAGUUCACAGACUAAAUGUCGGUCGGGGAAGAUGUAUUCUUCUCAUAAGAUAUAGUCGGACCUCUCCUUAAUGGGAGCUAGCGGAUGAAGUGAUGCAACACUGGAGCCGCUGGGAACUAAUUUGUAUGCGAAAGUAUAUUGAUUAGUUUUGGAGUACUCGUGGUCG
Put shortly: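 Six replicate transformations of E. coli BL21(DE3) with a pET-22b(+) library were grown overnight at 37°C or 30°C. The library randomised all eight P1ex-region intron nucleotides, the intron lying in the knt kanamycin-resistance gene, and plates were LB agar with or without 25 μg/mL kanamycin plus 100 μg/mL carbenicillin, 50 μM IPTG and 0.2% rhamnose. Pooled colonies were amplicon-sequenced on an Illumina HiSeq 2500, and fitness is the DiMSum error-weighted combination of wild-type-normalised replicate fold changes, kanamycin versus none.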

± gives the uncertainty stated by the source.

Turning to GUGUAGCAAUAUUACGGGCU, the “self-splicing fitness (ln)” value runs as follows: (30 °C) -2.88 ± 0.46; (37 °C) -0.129 ± 0.14.

In the case of UCAAAGCAAUAUUACGGUAU, the “self-splicing fitness (ln)” value is -4.12 ± 0.24 (30 °C) and -3.55 ± 0.29 (37 °C).

For the sequence ACCAAGCAAUAUUACGCGUA, the “self-splicing fitness (ln)” value runs as follows: (30 °C) -1.11 ± 0.075; (37 °C) -0.487 ± 0.075.

For UGUCAGCAAUAUUACGGAUA, the “self-splicing fitness (ln)” value by setting is: (30 °C) -1.37 ± 0.1; (37 °C) -0.339 ± 0.12.

For the sequence GGAGAGCAAUAUUACGUGGC, under “37 °C”, the “self-splicing fitness (ln)” value was -1.63 ± 0.25.

Regarding GUGUAGCAAUAUUACGAUCU, the “self-splicing fitness (ln)” value was -1.04 ± 0.1 (30 °C) and 0.329 ± 0.11 (37 °C).

As for UGUAAGCAAUAUUACGAGCC, the “self-splicing fitness (ln)” value by setting is: (30 °C) -1.57 ± 0.35; (37 °C) -0.838 ± 0.43.

On to AUAAAGCAAUAUUACGUAAC, for which the “self-splicing fitness (ln)” value reads like this: (30 °C) -1.92 ± 0.13; (37 °C) -0.901 ± 0.17.

Turning to AAGCAGCAAUAUUACGGCCC, the “self-splicing fitness (ln)” value (30 °C) amounted to 0.22 ± 0.14 and the “self-splicing fitness (ln)” value (37 °C) was 0.271 ± 0.17.

With CCGCAGCAAUAUUACGUACG, the “self-splicing fitness (ln)” value (30 °C) is -0.247 ± 0.058 and the “self-splicing fitness (ln)” value (37 °C) worked out at 0.254 ± 0.069.

Turning to UGUGAGCAAUAUUACGCUGG, the “self-splicing fitness (ln)” value by setting is: (30 °C) -2.49 ± 0.28; (37 °C) -2.71 ± 0.37.

As to AGGUAGCAAUAUUACGUAAU, the “self-splicing fitness (ln)” value by setting is: (30 °C) -1.908 ± 0.015; (37 °C) -0.958 ± 0.034.

For UUCUAGCAAUAUUACGCGGU, the “self-splicing fitness (ln)” value is, setting by setting: (30 °C) -2.74 ± 0.2; (37 °C) -0.435 ± 0.24.

For UCACAGCAAUAUUACGACAU, the “self-splicing fitness (ln)” value was -3.584 ± 0.02 (30 °C) and -2.19 ± 0.034 (37 °C).

In the case of AAGCAGCAAUAUUACGAGCC, the “self-splicing fitness (ln)” value reads like this: (30 °C) -3.37 ± 0.34; (37 °C) -1.2 ± 0.24.

With GAAUAGCAAUAUUACGGGUC, the “self-splicing fitness (ln)” value is -1.89 ± 0.21 (30 °C) and -2.68 ± 0.33 (37 °C).

CCCCAGCAAUAUUACGGCUU: the “self-splicing fitness (ln)” value is -3.23 ± 0.21 (30 °C) and -2.25 ± 0.23 (37 °C).

With AAGCAGCAAUAUUACGAUGG, the “self-splicing fitness (ln)” value was -2.99 ± 0.13 (30 °C) and -1.84 ± 0.14 (37 °C).

For the sequence UCCUAGCAAUAUUACGACAG, the “self-splicing fitness (ln)” value is -3.29 ± 0.25 (30 °C) and -2.42 ± 0.31 (37 °C).

In the case of AGUCAGCAAUAUUACGACUG, the “self-splicing fitness (ln)” value (30 °C) was -0.879 ± 0.055 and the “self-splicing fitness (ln)” value (37 °C) is -0.421 ± 0.069.

As for AAACAGCAAUAUUACGGCUG, the “self-splicing fitness (ln)” value is, setting by setting: (30 °C) -3.47 ± 0.25; (37 °C) -2.07 ± 0.23.

Turning to UAUUAGCAAUAUUACGCUUU, the “self-splicing fitness (ln)” value reads like this: (30 °C) -2.01 ± 0.16; (37 °C) -0.435 ± 0.18.

For the sequence GUCCAGCAAUAUUACGGAAC, the “self-splicing fitness (ln)” value runs as follows: (30 °C) -1.88 ± 0.12; (37 °C) -0.802 ± 0.11.

CGCUAGCAAUAUUACGCAAG: the “self-splicing fitness (ln)” value by setting is: (30 °C) -3.76 ± 0.32; (37 °C) -2.49 ± 0.33.

In the case of GUGAAGCAAUAUUACGAGUC, the “self-splicing fitness (ln)” value (30 °C) was -2.58 ± 0.17 and the “self-splicing fitness (ln)” value (37 °C) was -0.63 ± 0.23.

Turning to GUCAAGCAAUAUUACGUGGG, the “self-splicing fitness (ln)” value runs as follows: (30 °C) -3 ± 0.13; (37 °C) -2.23 ± 0.2.

On to AGUUAGCAAUAUUACGCUUA, for which the “self-splicing fitness (ln)” value by setting is: (30 °C) -1.3 ± 0.15; (37 °C) -0.343 ± 0.16.

On to ACAUAGCAAUAUUACGGCCG, for which the “self-splicing fitness (ln)” value (30 °C) was -0.333 ± 0.15 and the “self-splicing fitness (ln)” value (37 °C) came out at 0.385 ± 0.24.

With UAAUAGCAAUAUUACGACAU, the “self-splicing fitness (ln)” value runs as follows: (30 °C) -3.378 ± 0.025; (37 °C) -1.95 ± 0.036.

UAAAAGCAAUAUUACGUAGU: the “self-splicing fitness (ln)” value runs as follows: (30 °C) -3.36 ± 0.12; (37 °C) -2.83 ± 0.14.

Regarding GUUCAGCAAUAUUACGUCUC, the “self-splicing fitness (ln)” value reads like this: (30 °C) -0.362 ± 0.065; (37 °C) 0.216 ± 0.083.

Turning to UUUUAGCAAUAUUACGUGAC, the “self-splicing fitness (ln)” value by setting is: (30 °C) -3.41 ± 0.28; (37 °C) -0.031 ± 0.22.

On to CGCAAGCAAUAUUACGGCAG, for which the “self-splicing fitness (ln)” value (30 °C) is -0.448 ± 0.072 and the “self-splicing fitness (ln)” value (37 °C) was -0.305 ± 0.1.

With CGCUAGCAAUAUUACGGCGA, the “self-splicing fitness (ln)” value is, setting by setting: (30 °C) -2.76 ± 0.28; (37 °C) -2.3 ± 0.24.

Regarding CACUAGCAAUAUUACGCAGG, the “self-splicing fitness (ln)” value by setting is: (30 °C) -3.27 ± 0.12; (37 °C) -1.26 ± 0.15.

With AACGAGCAAUAUUACGCGUC, the “self-splicing fitness (ln)” value is -3.01 ± 0.22 (30 °C) and -2.85 ± 0.38 (37 °C).

For the sequence GGCGAGCAAUAUUACGUGCA, the “self-splicing fitness (ln)” value is -0.905 ± 0.085 (30 °C) and -0.435 ± 0.098 (37 °C).

With AUGUAGCAAUAUUACGAUUA, the “self-splicing fitness (ln)” value by setting is: (30 °C) -0.6 ± 0.14; (37 °C) 0.00536 ± 0.13.
